Reference: patent US20250122266A1 (TEXAS A AND M UNIVERSITY SYSTEM, published 2025)

B1: GFP-sunbody (anti-mCherry nanobody LaM8 with LOV2 at S0 and S3) (VHH, not shown: large carriers)
chain: LATTLERIEKNFVITDPRLPDNPIIFASDSFLQLTEYSREEILGRNCRFLQGPETDRATVRKIRDAIDNQTEVTVQLINYTKSGKKFWNLFHLQPMRDQKGDVQYFIGVQLDGTEHVRDAAEREGVMLIKKTAENIDEAAKELKLMAQVQLVESGGGLVQAGGSLRLSCAVSGRPFSEYNLGWFRQAPGKEREFVARIRSSGTTVYTDSVKGRFSASRDNALERIEKNFVITDPRLPDNPIIFASDSFLQLTEYSREEILGRNCRFLQGPETDRATVRKIRDAIDNQTEVTVQLINYTKSGKKFWNLFHLQPMRDQKGDVQYFIGVQLDGTEHVRDAAEREGVMLIKKTAENIDEAAKNMGYLQLNSLEPEDTAVYYCAMSRVDTDSPAFYDYWGQGTQVTVSTPRS
notes: also called S0+S3; anti-mCh GFP-tagged sunbody
B2: GFP-2xsunbody (dimeric concatemer of sunbody) (VHH, not shown: large carriers)
chain: LATTLERIEKNFVITDPRLPDNPIIFASDSFLQLTEYSREEILGRNCRFLQGPETDRATVRKIRDAIDNQTEVTVQLINYTKSGKKFWNLFHLQPMRDQKGDVQYFIGVQLDGTEHVRDAAEREGVMLIKKTAENIDEAAKELKLMAQVQLVESGGGLVQAGGSLRLSCAVSGRPFSEYNLGWFRQAPGKEREFVARIRSSGTTVYTDSVKGRFSASRDNALERIEKNFVITDPRLPDNPIIFASDSFLQLTEYSREEILGRNCRFLQGPETDRATVRKIRDAIDNQTEVTVQLINYTKSGKKFWNLFHLQPMRDQKGDVQYFIGVQLDGTEHVRDAAEREGVMLIKKTAENIDEAAKNMGYLQLNSLEPEDTAVYYCAMSRVDTDSPAFYDYWGQGTQVTVSTPRSLATTLERIEKNFVITDPRLPDNPIIFASDSFLQLTEYSREEILGRNCRFLQGPETDRATVRKIRDAIDNQTEVTVQLINYTKSGKKFWNLFHLQPMRDQKGDVQYFIGVQLDGTEHVRDAAEREGVMLIKKTAENIDEAAKELKLMAQVQLVESGGGLVQAGGSLRLSCAVSGRPFSEYNLGWFRQAPGKEREFVARIRSSGTTVYTDSVKGRFSASRDNALERIEKNFVITDPRLPDNPIIFASDSFLQLTEYSREEILGRNCRFLQGPETDRATVRKIRDAIDNQTEVTVQLINYTKSGKKFWNLFHLQPMRDQKGDVQYFIGVQLDGTEHVRDAAEREGVMLIKKTAENIDEAAKNMGYLQLNSLEPEDTAVYYCAMSRVDTDSPAFYDYWGQGTQVTVSTPRS
notes: also called tandem sunbody

Experiments:
[1] = molecular target: T1, NE-tethered mCh-lamin A (UniProt P02545 1-664); assay: nucleoplasmic GFP signal in HeLa cells over dark-light cycles
[2] = molecular target: T1, NE-tethered mCh-lamin A; assay: NE/NP ratio of GFP signal in HeLa cells, before and after light
[3] = molecular target: mCh tethered to early endosome [EE]; assay: cytosol-to-early-endosome translocation in HeLa cells under light
[4] = molecular target: T2, plasma membrane targeting mCh (mCh-CAAX); assay: cytosol-to-plasma-membrane translocation in HeLa cells under light
T2 construct: also called mCh tethered to PM

T1 sequence (P02545 whole entry): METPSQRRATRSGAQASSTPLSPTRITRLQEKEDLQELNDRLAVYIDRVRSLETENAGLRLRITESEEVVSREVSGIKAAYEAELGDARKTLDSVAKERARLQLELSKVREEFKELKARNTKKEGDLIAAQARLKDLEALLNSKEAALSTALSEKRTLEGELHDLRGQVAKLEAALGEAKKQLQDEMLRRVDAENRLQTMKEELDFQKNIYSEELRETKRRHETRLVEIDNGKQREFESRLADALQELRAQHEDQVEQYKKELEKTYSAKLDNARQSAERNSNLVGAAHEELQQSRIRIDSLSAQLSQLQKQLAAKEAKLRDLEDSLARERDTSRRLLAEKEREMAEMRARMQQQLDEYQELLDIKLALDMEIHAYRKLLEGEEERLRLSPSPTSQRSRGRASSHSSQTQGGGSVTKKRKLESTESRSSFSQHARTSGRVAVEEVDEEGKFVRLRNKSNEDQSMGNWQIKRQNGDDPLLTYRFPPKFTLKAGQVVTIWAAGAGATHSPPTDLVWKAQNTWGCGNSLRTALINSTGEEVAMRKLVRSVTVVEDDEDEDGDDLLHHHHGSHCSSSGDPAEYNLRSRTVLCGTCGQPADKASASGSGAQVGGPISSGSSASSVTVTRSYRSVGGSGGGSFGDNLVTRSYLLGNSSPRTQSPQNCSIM

| Binder | half-life of light-triggered translocation to the antigen (t½, on) [1] [s] | light-induced change in the NE/NP ratio [2] [%] | fold increase in the signal-to-background ratio against 1x sunbody [3] [fold] | fold increase in the signal-to-background ratio against 1x sunbody [4] [fold] |
| --- | --- | --- | --- | --- |
| B1 | 2.6 | > 80 | – | – |
| B2 | – | – | > 2 | > 2 |
